In PMC5242376 (Science signaling, 2016):

B1: recombinant human BMP7 (ligand, UniProt P18075 293-431, looked up)
chain: STGSKQRSQNRSKTPKNQEALRMANVAENSSSDQRQACKKHELYVSFRDLGWQDWIIAPEGYAAYYCEGECAFPLNSYMNATNHAIVQTLVHFINPETVPKPCCAPTQLNAISVLYFDDSSNVILKKYRNMVVRACGCH
B2: recombinant human BMP4 (ligand, UniProt P12644 293-408, looked up)
chain: SPKHHSQRARKKNKNCRRHSLYVDFSDVGWNDWIVAPPGYQAFYCHGDCPFPLADHLNSTNHAIVQTLVNSVNSSIPKACCVPTELSAISMLYLDEYDKVVLKNYQEMVVEGCGCR
B3: recombinant human BMP2 (ligand, UniProt P12643 283-396, looked up)
chain: QAKHKQRKRLKSSCKRHPLYVDFSDVGWNDWIVAPPGYHAFYCHGECPFPLADHLNSTNHAIVQTLVNSVNSKIPKACCVPTELSAISMLYLDENEKVVLKNYQDMVVEGCGCR

Columns and labels:
[1] = target: T1, His-tagged MuSK ectodomain (UniProt Q61006 22-494); test: SPR
T1 sequence (looked up): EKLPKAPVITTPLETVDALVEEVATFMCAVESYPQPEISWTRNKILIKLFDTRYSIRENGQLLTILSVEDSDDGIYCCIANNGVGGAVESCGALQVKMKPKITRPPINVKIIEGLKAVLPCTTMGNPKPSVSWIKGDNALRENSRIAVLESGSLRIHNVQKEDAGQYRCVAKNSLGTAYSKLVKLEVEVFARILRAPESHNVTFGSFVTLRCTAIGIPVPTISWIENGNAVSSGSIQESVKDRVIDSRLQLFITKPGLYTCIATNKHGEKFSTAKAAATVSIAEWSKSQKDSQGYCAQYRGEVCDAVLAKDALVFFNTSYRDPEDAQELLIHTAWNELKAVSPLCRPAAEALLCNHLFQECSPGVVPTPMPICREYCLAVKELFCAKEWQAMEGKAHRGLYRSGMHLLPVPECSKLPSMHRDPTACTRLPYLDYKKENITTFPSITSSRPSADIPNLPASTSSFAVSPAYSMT

[2] = target: T2, full-length Fc-fusion MuSK ectodomain (UniProt Q61006 22-494); test: ELISA
T2 sequence (looked up): T1 sequence (looked up)

| Binder | Kd [1] | EC50 [2] |
| --- | --- | --- |
| B1 | 11.8 nM | – |
| B2 | – | ~30 nM |
| B3 | 5.6 nM | – |
